Results reported in the DeepSol protein solubility set.

Experiment: soluble on expression in E. coli; label from the status in PepcDB or PDB records

| Sequence | soluble on expression in E. coli |
| --- | --- |
| MSLQNGKIKGLIFDCYKTLIDIRTDEGSWETNEKVSKWLLYQGVRIEPDRLREEYKWKVIGRLGNSGQKYPDIRIEEIFAEICAENAFREINPFWLGIEAAKVFRTSSLKKLEAYPQSLRLLDKYRNVPKCIVSNAQRVFTEQELHFLGLYDRFNFIIMSSDHRIKKPDTRLFKMALDGLKLEPWEVLSIGDTPENDIYAPQSLGINAMHIRDAWRCVEGHHHHHH | soluble |
| MSLQQPLAYRMRPRTIDEVVGQQHLVGEGKIIRRMVDARMLSSMILYGPPGTGKTSIASAIAGSTNYAFRMLNAATDSKKDLQVVAEEAKMSGTVILLLDEVHRLDKTKQDFLLPHLESGRIILIGATTENPYITINPAIRSRTQIFEVKPLTEQDIQLAVEHALRDKERGLGQQAIQLDEDALLHLSRATNGDLRSALNGLELATLSTPSDKEGRIHLTLSIIEECVQRKALTHDKNGDAHYDVISAFQKSIRGSDVDAALHYLARLVEAGDLASICRRLMVIGYEDIGLGNPAAAARTVNAVLAAEKLGLPEARIPLADVVVDLCLSPKSNSAYMALDAALADIREGKAGDVPDHLRDSHYKGAKSLNRGVGYQYPHHFDQAWVNQQYLPDKLKNAQYYQPKDTGKYEQALGQQYYRIKEWKEGHHHHHH | soluble |
| MSLQRKVFPKCQWVGVSEMKGIRPTQEDAVICYPFAPNGIHIFSVLDGHGGSKTSNFAACDLFNNLSKLEKVDENTLSGSVSATLKSLKAQHFNDGSTMALAVITPNRHIFSCHLGDSRTIVVRRDGSISHFTKDHKPDEKSEVKRVLSQHGFILKHRVMGLLAVSSSLGDFEVVGIGHQPVIREWVIDESDKWLVICCDGVFDVLTNEEVGKICQNATSASALAYDIKNIAFELLSQDNISCIAVDLENMAFSNEGHHHHHH | soluble |
| MSLQRVSNRLIEQSDIENMPNTWKKQAYRQIAKKLGPKSNFPCIFSKNAYKKGLLQFVFMESISHDQMEELKVCLTEFIEANKEWDHRISTAKPLLIVFSTQAIKSERLEDYHSFGWNVLRSIHALDPSPWPHGVDKDPSSPNWSMCFNGMQLFINMSCPAHKVRRSRNLGDHFIMVVNPRERFDVVAGDNAKGHRVRDEIRGRIEIYDNCKPCKQLGYFGSDTMEWQQYGIIEENKTRTSKCPYKIDEGHHHHHH | soluble |
| MSLQSLWIYPEDTEVLGAACKSLLKALKPRYQKIALFSPISGGCEGFGECESLSSLEVHSAIDKQKALELVSTAQEELLFETILKRYDELQSTHDFVINLGYAPKFFLNALLDLNTILAKHLNAPVVAVAQTSLDHLKAMHSHILKKEAPFAIGLFVGETLEKPHFLSASLCKQQCELEASAIENLLQTKSEIITPLAFQRSLEKKAKKQIKKVVLPESEDERILKAAHRLNLMGAVGLILLGDKEAINSQAKNLNLNLENVEIINPNTSHYREEFAKSLYELRKSKGLSEQEAERLALDKTYFATMLVHLGYAHAMVSGVNHTTAETIRPALQIIKTKPGVSLVSSVFLMCLDTQVFVFGDCAIIPNPSPKELAEIATTSAQTAKQFNIAPKVALLSYATGNSAQGEMIDKINEALTIVQKLDPQLEIDGPLQFDASIDKGVAKKKMPNSQVAGQASVFIFPDLNAGNIAYKAVQRSAKAVAIGPILQGLNKPINDLSRGALVEDIVNTVLISAIQAQDYEGHHHHHH | not soluble |
| MSLRDEQEIYNLVLNIANQDKRIEAVLLNGSRANPNVPKDDFQDYDIVFVTNFIEDIISDTNYHKKFGDILIMQKPNEFRNKTEYNCFAYLMQFQDLTRIDLRLIKPEFLEDYLDDAFSKVLLDKKNKYLDYNFERSSLYETKQLSEDEINKILNEIYWVSTYVVKGIARNDIIYSEFMISNPIKNAFIKLLKQKILIEKELDSLSFGKLDKDILQYITDKDQLLKIFSNKSLKDIEANLRFLLDETNQMAKYISINRKLNLNQGEYQSAMKFMNIFLSNSYQNFNEGHHHHHH | soluble |
| MSLRDSAFFETGEKHFRTLCSSCHSAHQEIYGPMLGSISKKRKESWLIPFIRNSQEVIRSGDAYAKALFEKFDHQIMPPFEQLSDQDIKAILYYLEIESLQPQEYLNDAAIPPTSDSSVIRGKQEFLDHCSMCHFVHKESTFAPALGSVTKRHSREWLISFIQNSEKKINQGDAYAVHLFNQFDQHVMTNMDFLPIEEINAILDYIEFASTVDVAEGHHHHHH | not soluble |
| MSLRDTVLVVDDEPDSLRFLADTLEGAGIRVLVAISGDAALDVLQHVEPDLILMDGVMPGRSGFETTACIKARPELAHVPVVFMTGLHDDEHVVRGFEVGGVDYLRKPVNVQELLARVRVHVGNARAIQAGAAGLDATGRLMMATDLQGGLLWCTPLAERAIARACPGWSRDAGALPDALREPVRKMLGRGAAQSGSVKVEQVDGTMELVVIAQYRGQEVLIRVNELNPKADIALLQQKLGLTDREAEVLLWTSYGKSNATISEVLAISPRTVQKHLERIYEKLGIETRAAAAAVAIKALGNEGHHHHHH | soluble |
| MSLREGYLPAVITVSGKDRPGVTAAFFRVLSANQVQVLDVEQSMFRGFLNLAAFVGIAPERVETVTTGLTDTLKVHGQSVVVELQETVQSSRPRSSHVVVVLGDPVDALDISRIGQTLADYDANIDTIRGISDYPVTGLELKVTVPDVSPGGGEAMRKALAALTSELNVDIAIERSGLLRRSKRLVCFDCDSTLITGEVIEMLAAHAGKEAEVAAVTERAMRGELDFEESLRERVKALAGLDASVIDEVAAAIELTPGARTTIRTLNRMGYQTAVVSGGFIQVLEGLAEELELDYVRANTLEIVDGKLTGNVTGKIVDRAAKAEFLREFAADSGLKMYQTVAVGDGANDIDMLSAAGLGVAFNAKPALKEIADTSVNHPFLDEVLHIMGISRDEGHHHHHH | soluble |
| MSLRIAIVGAGALGLYYGALLQRSGEDVHFLLRRDYEAIAGNGLKVFSINGDFTLPHVKGYRAPEEIGPMDLVLVGLKTFANSRYEELIRPLVEEGTQILTLQNGLGNEEALATLFGAERIIGGVAFLCSNRGEPGEVHHLGAGRIILGEFLPRDTGRIEELAAMFRQAGVDCRTTDDLKRARWEKLVWNIPFNGLCALLQQPVNLILARDVSRKLVRGIMLEVIAGANAQGLATFIADGYVDDMLEFTDAMGEYKPSMEIDREEGRPLEIAAIFRTPLAYGAREGIAMPRVEMLATLLEQATGEGHHHHHH | soluble |
| MSLRILDIREQAIPVSRYDDPAIASGGLTTSIVAIVTDVVRDGRPVTGYGYASAGRFAQGGLIRERFAPRLLAAAEALADDAGTNLDPLRAWRAMMAGEKPGGHGERCVAVGTLDMAIWDAAAKIARVPLHCLIADRLGRAAPARTARVRVYAGGGYRYPRDDLARLSDEMRRIVDLGYTHAKIKIGATDLDVDRRRIEAAAARLADSAHLAVDAMNAYDATNAGDAAAMLAPFGLWWFEDVCDPLDLPLHAQLAAQYAPPIAAGEALFSLAEAKLLDRYGGLRSDRDVLVFDPVHCYGLSGYLQIVDHFVSRGWRRDAFWPHGGHLFSLHVVAALGLGGAEVNPFAFHPFSGLADGERVDAGYAALPSAPGIGFECHARVHAAFRALSVREGHHHHHH | soluble |
| MSLRKGNEIELLVEGIEFPAKGFGFVDGLKVYAKNTFPGQKVFGRVTKKRKEYAEIRVSEVREKASYEEDQKCPHFGVCGGCSSQTIPYEKQLELKVEQVKDLFKEAEVPTGEFLGIETSPIQWEYRNKMEYTFGDEEKGGELTLGMHMKGKSFGIVNVDKCVLVDEDFRNILDTTVKYFREKGLPFYKIMPRTGYLRYLVVRKSVKTEEILVNLVTTTQIDFDLTEFTELIKGLNLKGKLKSIIHTESDALSEAVIPEKVNILYGDDFITENLLGLNFKISPFSFFQTNSLGAEKLYSIVRDFMGAADNKVVFDLYCGTGTIGQIAAGKASKVIGIELIEEAAMAANENAKLNGLNNCNFIAGDVAEVIKTVKDKPDIIILDPPRSGVHPKALDYVIKFNAPQIIYVSCNPKTLVTDLKVLEAKGYEIEKTLLMDMFPNTPHVETVVKLNKKEGHHHHHH | soluble |
| MSLRKSTLSGEVRVRNHQLGIYEKALAKDLSWPERLVLAKSCGFDFVEMSVDETDERLSRLDWSAAQRTSLVAAMIETGVGIPSMCLSAHRRFPFGSRDEAVRERAREIMSKAIRLARDLGIRTIQLAGYDVYYEDHDEGTRQRFAEGLAWAVEQAAASQVMLAVEIMDTAFMNSISKWKKWDEMLASPWFTVYPDVGNLSAWGNDVPAELKLGIDRIAAIHLKDTQPVTGQSPGQFRDVPFGEGCVDFVGIFKTLHKLNYRGSFLIEMWTEKAKEPVLEIIQARRWIEARMQEAGFICEGGSHHHHHH | soluble |
| MSLRMRVGKFDYLNNFLPYYFLNEKVEIVEANPREMASMLLSGRIDYAPVPAFFYLKNRERLRHYEFCVASEGKVLSVVVVSRKKELDDGSIAVTPHSLTSVNLLKILLAERGMKNMLVEVNTAKASEMLELCPHALVIGDEAIKARMIYKVVMDLGEEWYELTSLPAVFGISASLKETNAEEMDRKILMATEEGYRRFDEVVRAAEKAFKMPREFLEEYFRTLKFRLSSKERRGLDEFEKYCRDYEGHHHHHH | soluble |
| MSLRNKLLTIFDSVDESARIKDAFITQLESSITDAGVLALKLELLDFLTSNLSNYSRTMTISHLLLGFQVSNVISLGPNLATFISSGTSLLDSLISVLEASLNSITKDNIDYAPMRLATAALEIILKLCRNPLTSGLLYSYLIKENFFERIMILDPQVTRFTTWNGSPFDNSTEEKCKNFIESESVGAFLSFLAYRNYWTQYLGLFIHKISFSGTKSEVLTYVNYLISNTMYSVRLFSFLDPLNYGNICEPKETLSIFTNVPLNLEQVTLNKYCSGNIYDFHKMENLMRLIKRVRAESLHSNEGHHHHHH | soluble |
| MSLRNMSIINSTPVRVIAIVGCDGSGKSTLTASLVNELAARMPTEHIYLGQSSGRIGEWISQLPVIGAPFGRYLRSKAAHVHEKPSTPPGNITALVIYLLSCWRAYKFRKMLCKSQQGFLLITDRYPQVEVPGFRFDGPQLAKTTGGNGWIKMLRQRELKLYQWMASYLPVLLIRLGIDEQTAFARKPDHQLAALQEKIAVTPQLTFNGAKILELDGRHPADEILQASLRAIHAALSEGHHHHHH | soluble |
| MSLRPGQVDNDVINLVAMLFEFILDDRHLHSVMKSLLGRLQIPILKVALTDKNFFNRGGHPARKLLNEMALAATGWTEKRPGQRDPLLDKISAVVNRILAEFSTDVSLFNELLDDFNQFSDLDQRRSDLVEQRLRDAEEGRARHEQATADTKELLHEAMDGRLLPEPVQDMLNGPWSHYLHWLALHESTDSEAWQRAKTLTEQLIWTIDPVPLTATTHELLQQAIPQVIEQLRGALEGVAWDGLSVEMVVRDLELVHLDVFQRLVIAPSEAAGNDHAQIDDSQEAPAVRADAVPSDTTNTSADVSHPAPALPVAADDPKEAVVARVPEPTRAQPVVAEEWLAKADGLRVGCWLELNRDGSQIRCKLAAFIRAVDKYIFVNRSGAKVAEYRRNELAEMMAQGHIEILDDGLIFDRALESIIDNLRTSRREGHHHHHH | soluble |
